One experiment concerns the target T1, human GLP-1 receptor (human, UniProt P43220 24-463).
T1 construct: whole, on cells; Assayed as crude membranes of stably transfected HEK293 cells; also called hGLP1R; hGLP-1R
The experiment is described as follows: SPA, displacement of [125I]-GLP-1 from hGLP-1R membranes, 0.1% bacitracin. The essentials:
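Binding buffer: 25 mM HEPES pH 7.4, 2.5 mM CaCl₂, 1 mM MgCl₂, 0.1% bacitracin, 0.003% Tween-20, protease inhibitors without EDTA. Four-parameter nonlinear regression; Kᵢ given as geometric mean ± SEM, n = independent replicates run on different days.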

Experiment [1] concerns the target T2, human glucose-dependent insulinotropic polypeptide (GIP) receptor (human, UniProt P48546 22-466).
T2 construct: whole, on cells; Assayed as crude membranes of stably transfected CHO cells; also called hGIPR; human GIP receptor
T2 sequence (looked up): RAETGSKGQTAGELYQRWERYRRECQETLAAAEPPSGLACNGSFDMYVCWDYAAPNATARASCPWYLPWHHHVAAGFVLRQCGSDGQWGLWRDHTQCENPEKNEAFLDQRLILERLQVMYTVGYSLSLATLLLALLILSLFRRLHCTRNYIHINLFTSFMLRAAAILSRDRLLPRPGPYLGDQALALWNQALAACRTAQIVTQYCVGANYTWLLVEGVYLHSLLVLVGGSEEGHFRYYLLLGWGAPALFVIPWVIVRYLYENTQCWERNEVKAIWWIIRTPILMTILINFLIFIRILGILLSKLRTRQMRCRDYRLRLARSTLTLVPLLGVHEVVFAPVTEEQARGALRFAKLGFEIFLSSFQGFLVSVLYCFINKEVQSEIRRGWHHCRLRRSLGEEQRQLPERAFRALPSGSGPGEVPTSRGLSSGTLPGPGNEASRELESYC
Kind of experiment: SPA, displacement of [125I]-GIP from hGIPR membranes, 0.1% bacitracin. Background: Loss of bound radioactivity is the signal in a displacement assay; it reports binding, not function.

In a further experiment the target is T3, human glucagon receptor (human, UniProt P47871 26-477).
T3 construct: whole, on cells; Assayed as crude membranes of stably transfected HEK293 cells; also called hGcgR; GcgR
Kind of experiment: SPA, displacement of [125I]-Gcg from hGcgR membranes, 0.1% bacitracin. The essentials:
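Binding buffer: 25 mM HEPES pH 7.4, 2.5 mM CaCl₂, 1 mM MgCl₂, 0.003% Tween-20, protease inhibitors without EDTA. Counted by scintillation after 12 h incubation/settling at room temperature. Four-parameter nonlinear fit; Kᵢ given as geometric mean ± SEM of independent replicates run on different days.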

The term Ki denotes a measure of affinity in units of concentration, obtained from inhibition or displacement. A higher Ki goes with a looser hold on the target.

Starred links: 1 amine or outer side, 2 acyl side, 3 side chain; linkers in the order of their positions; H or OH if unused. Non-standard residues stand in square brackets, D forms with d. Groups on a side chain read outwards from the residue. No end group written: not given here. *: point of attachment. C20 diacid = O=C(O)CCCCCCCCCCCCCCCCCCC(=O)*; C18 diacid = O=C(O)CCCCCCCCCCCCCCCCC(=O)*; αMePhe(2-F) = C[C@](N)(Cc1ccccc1F)C(=O)O; γGlu = O=C(O)[C@H](CCC(=O)[*:2])N[*:1]; αMeF = C[C@](N)(Cc1ccccc1)C(=O)O; 4Pal = N[C@@H](Cc1ccncc1)C(=O)O; AEEA = NCCOCCOCC(=O)O; Aib = CC(C)(N)C(=O)O

T3 sequence (P47871 26-477): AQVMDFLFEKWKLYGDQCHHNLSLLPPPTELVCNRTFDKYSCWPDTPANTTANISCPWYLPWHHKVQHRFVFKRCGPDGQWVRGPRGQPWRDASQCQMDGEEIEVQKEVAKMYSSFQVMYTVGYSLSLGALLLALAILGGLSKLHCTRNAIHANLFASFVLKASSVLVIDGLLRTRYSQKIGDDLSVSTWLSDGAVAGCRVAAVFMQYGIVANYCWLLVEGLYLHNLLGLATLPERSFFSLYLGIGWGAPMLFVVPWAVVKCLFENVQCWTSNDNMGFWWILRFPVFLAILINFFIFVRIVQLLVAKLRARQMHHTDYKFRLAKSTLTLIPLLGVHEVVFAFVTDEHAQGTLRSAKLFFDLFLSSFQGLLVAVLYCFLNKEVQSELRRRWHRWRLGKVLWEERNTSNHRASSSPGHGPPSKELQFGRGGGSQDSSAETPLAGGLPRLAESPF

B1: Example 11 (peptide)
peptide: Y[dA]EGTFISDYSILLDKK([AEEA-AEEA-γGlu-C20 diacid])AQQDFVNWLLAQGPSSGAPPPS-NH2
modifications: N-terminus assumed
SMILES: CC[C@H](C)[C@H](NC(=O)[C@H](CO)NC(=O)[C@H](Cc1ccc(O)cc1)NC(=O)[C@H](CC(=O)O)NC(=O)[C@H](CO)NC(=O)[C@@H](NC(=O)[C@H](Cc1ccccc1)NC(=O)[C@@H](NC(=O)CNC(=O)[C@H](CCC(=O)O)NC(=O)[C@@H](C)NC(=O)[C@@H](N)Cc1ccc(O)cc1)[C@@H](C)O)[C@@H](C)CC)C(=O)N[C@@H](CC(C)C)C(=O)N[C@@H](CC(C)C)C(=O)N[C@@H](CC(=O)O)C(=O)N[C@@H](CCCCN)C(=O)N[C@@H](CCCCNC(=O)COCCOCCNC(=O)COCCOCCNC(=O)CC[C@H](NC(=O)CCCCCCCCCCCCCCCCCCC(=O)O)C(=O)O)C(=O)N[C@@H](C)C(=O)N[C@@H](CCC(N)=O)C(=O)N[C@@H](CCC(N)=O)C(=O)N[C@@H](CC(=O)O)C(=O)N[C@@H](Cc1ccccc1)C(=O)N[C@H](C(=O)N[C@@H](CC(N)=O)C(=O)N[C@@H](Cc1c[nH]c2ccccc12)C(=O)N[C@@H](CC(C)C)C(=O)N[C@@H](CC(C)C)C(=O)N[C@@H](C)C(=O)N[C@@H](CCC(N)=O)C(=O)NCC(=O)N1CCC[C@H]1C(=O)N[C@@H](CO)C(=O)N[C@@H](CO)C(=O)NCC(=O)N[C@@H](C)C(=O)N1CCC[C@H]1C(=O)N1CCC[C@H]1C(=O)N1CCC[C@H]1C(=O)N[C@@H](CO)C(N)=O)C(C)C
With B1, the inhibition constant Ki came to 85.9 nM in the experiment with human GLP-1 receptor, 0.0584 nM in experiment [1] and 163 nM in the experiment with human glucagon receptor.

B2: Example 12 (peptide)
peptide: Y[dA]EGTFISDYSILLDKK([AEEA-AEEA-γGlu-C20 diacid])AQQDFVNWLLAGGPSSGAPPPS-NH2
modifications: N-terminus assumed
SMILES: CC[C@H](C)[C@H](NC(=O)[C@H](CO)NC(=O)[C@H](Cc1ccc(O)cc1)NC(=O)[C@H](CC(=O)O)NC(=O)[C@H](CO)NC(=O)[C@@H](NC(=O)[C@H](Cc1ccccc1)NC(=O)[C@@H](NC(=O)CNC(=O)[C@H](CCC(=O)O)NC(=O)[C@@H](C)NC(=O)[C@@H](N)Cc1ccc(O)cc1)[C@@H](C)O)[C@@H](C)CC)C(=O)N[C@@H](CC(C)C)C(=O)N[C@@H](CC(C)C)C(=O)N[C@@H](CC(=O)O)C(=O)N[C@@H](CCCCN)C(=O)N[C@@H](CCCCNC(=O)COCCOCCNC(=O)COCCOCCNC(=O)CC[C@H](NC(=O)CCCCCCCCCCCCCCCCCCC(=O)O)C(=O)O)C(=O)N[C@@H](C)C(=O)N[C@@H](CCC(N)=O)C(=O)N[C@@H](CCC(N)=O)C(=O)N[C@@H](CC(=O)O)C(=O)N[C@@H](Cc1ccccc1)C(=O)N[C@H](C(=O)N[C@@H](CC(N)=O)C(=O)N[C@@H](Cc1c[nH]c2ccccc12)C(=O)N[C@@H](CC(C)C)C(=O)N[C@@H](CC(C)C)C(=O)N[C@@H](C)C(=O)NCC(=O)NCC(=O)N1CCC[C@H]1C(=O)N[C@@H](CO)C(=O)N[C@@H](CO)C(=O)NCC(=O)N[C@@H](C)C(=O)N1CCC[C@H]1C(=O)N1CCC[C@H]1C(=O)N1CCC[C@H]1C(=O)N[C@@H](CO)C(N)=O)C(C)C
Take B2: the Ki in the experiment with human GLP-1 receptor was determined as 46.8 nM; in experiment [1] it was 0.0876 nM; with human glucagon receptor it was 134 nM.

B3: Example 18 (peptide)
peptide: YXEGTFISDYSILLDKKAQXDFVNXLLAQGPSSGAPPPS
modifications: D-Ala2; K17((2-[2-(2-Amino-ethoxy)-ethoxy]-acetyl)2-(γ-Glu)-CO-(CH2)16-CO2H); Aib20; 4-Pal25; C-terminal amide
As for B3, the figures for the Ki (with human GLP-1 receptor; in experiment [1]; in the experiment with human glucagon receptor) were 158 nM, 0.0331 nM and 463 nM, respectively.

B4: Example 39 (peptide)
peptide: Y[Aib]EGT[αMePhe(2-F)]ISDYSIALDKK([AEEA-AEEA-γGlu-C20 diacid])HQ[Aib]DFVE[4Pal]LLEGGPSSGAPPPS-NH2
modifications: N-terminus assumed
SMILES: CC[C@H](C)[C@H](NC(=O)[C@H](CO)NC(=O)[C@H](Cc1ccc(O)cc1)NC(=O)[C@H](CC(=O)O)NC(=O)[C@H](CO)NC(=O)[C@@H](NC(=O)[C@](C)(Cc1ccccc1F)NC(=O)[C@@H](NC(=O)CNC(=O)[C@H](CCC(=O)O)NC(=O)C(C)(C)NC(=O)[C@@H](N)Cc1ccc(O)cc1)[C@@H](C)O)[C@@H](C)CC)C(=O)N[C@@H](C)C(=O)N[C@@H](CC(C)C)C(=O)N[C@@H](CC(=O)O)C(=O)N[C@@H](CCCCN)C(=O)N[C@@H](CCCCNC(=O)COCCOCCNC(=O)COCCOCCNC(=O)CC[C@H](NC(=O)CCCCCCCCCCCCCCCCCCC(=O)O)C(=O)O)C(=O)N[C@@H](Cc1c[nH]cn1)C(=O)N[C@@H](CCC(N)=O)C(=O)NC(C)(C)C(=O)N[C@@H](CC(=O)O)C(=O)N[C@@H](Cc1ccccc1)C(=O)N[C@H](C(=O)N[C@@H](CCC(=O)O)C(=O)N[C@@H](Cc1ccncc1)C(=O)N[C@@H](CC(C)C)C(=O)N[C@@H](CC(C)C)C(=O)N[C@@H](CCC(=O)O)C(=O)NCC(=O)NCC(=O)N1CCC[C@H]1C(=O)N[C@@H](CO)C(=O)N[C@@H](CO)C(=O)NCC(=O)N[C@@H](C)C(=O)N1CCC[C@H]1C(=O)N1CCC[C@H]1C(=O)N1CCC[C@H]1C(=O)N[C@@H](CO)C(N)=O)C(C)C
On to B4, for which the Ki with human GLP-1 receptor came to 235 nM; in experiment [1], 0.0444 nM; with human glucagon receptor, 76 nM.

B5: Example 23 (peptide)
peptide: Y[Aib]EGT[αMeF]ISDYSIALDKK([AEEA-AEEA-γGlu-C18 diacid])HQ[Aib]DFVE[4Pal]LLAGGPSSGAPPPS-NH2
modifications: N-terminus assumed
SMILES: CC[C@H](C)[C@H](NC(=O)[C@H](CO)NC(=O)[C@H](Cc1ccc(O)cc1)NC(=O)[C@H](CC(=O)O)NC(=O)[C@H](CO)NC(=O)[C@@H](NC(=O)[C@](C)(Cc1ccccc1)NC(=O)[C@@H](NC(=O)CNC(=O)[C@H](CCC(=O)O)NC(=O)C(C)(C)NC(=O)[C@@H](N)Cc1ccc(O)cc1)[C@@H](C)O)[C@@H](C)CC)C(=O)N[C@@H](C)C(=O)N[C@@H](CC(C)C)C(=O)N[C@@H](CC(=O)O)C(=O)N[C@@H](CCCCN)C(=O)N[C@@H](CCCCNC(=O)COCCOCCNC(=O)COCCOCCNC(=O)CC[C@H](NC(=O)CCCCCCCCCCCCCCCCC(=O)O)C(=O)O)C(=O)N[C@@H](Cc1c[nH]cn1)C(=O)N[C@@H](CCC(N)=O)C(=O)NC(C)(C)C(=O)N[C@@H](CC(=O)O)C(=O)N[C@@H](Cc1ccccc1)C(=O)N[C@H](C(=O)N[C@@H](CCC(=O)O)C(=O)N[C@@H](Cc1ccncc1)C(=O)N[C@@H](CC(C)C)C(=O)N[C@@H](CC(C)C)C(=O)N[C@@H](C)C(=O)NCC(=O)NCC(=O)N1CCC[C@H]1C(=O)N[C@@H](CO)C(=O)N[C@@H](CO)C(=O)NCC(=O)N[C@@H](C)C(=O)N1CCC[C@H]1C(=O)N1CCC[C@H]1C(=O)N1CCC[C@H]1C(=O)N[C@@H](CO)C(N)=O)C(C)C
Regarding B5, the Ki in the experiment with human GLP-1 receptor turned out to be 251 nM; in experiment [1] it was 0.0341 nM; in the experiment with human glucagon receptor, 323 nM.
